Test results as given in US20040233833.
Where “and” joins values, the source holds several entries; their conditions need not be identical. Identical values can stand only once.

Experiments:
REGα = REGα (UniProt Q06323)
REGα/β = REGα/β (UniProt Q06323)
REGγ (wild-type) = REGγ (wild-type) (UniProt P61289)
REGγ(K188A) = REGγ(K188A) (UniProt P61289)
REGγ(K188C) = REGγ(K188C) (UniProt P61289)
REGγ(K188D) = REGγ(K188D) (UniProt P61289)
REGγ(K188E) = REGγ(K188E) (UniProt P61289)
REGγ(K188F) = REGγ(K188F) (UniProt P61289)
REGγ(K188H) = REGγ(K188H) (UniProt P61289)
REGγ(K188I) = REGγ(K188I) (UniProt P61289)
REGγ(K188N) = REGγ(K188N) (UniProt P61289)
REGγ(K188P) = REGγ(K188P) (UniProt P61289)
REGγ(K188Q) = REGγ(K188Q) (UniProt P61289)
REGγ(K188R) = REGγ(K188R) (UniProt P61289)
REGγ(K188S) = REGγ(K188S) (UniProt P61289)
REGγ(K188S), sequence (P61289 whole entry K188S): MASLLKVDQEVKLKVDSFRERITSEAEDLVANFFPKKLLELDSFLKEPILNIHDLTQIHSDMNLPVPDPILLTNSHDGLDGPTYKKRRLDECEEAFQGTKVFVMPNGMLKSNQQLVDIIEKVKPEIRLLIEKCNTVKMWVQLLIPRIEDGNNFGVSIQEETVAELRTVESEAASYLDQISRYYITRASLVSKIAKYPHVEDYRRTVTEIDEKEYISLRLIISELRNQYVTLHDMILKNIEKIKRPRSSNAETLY

REGγ(K188R), sequence (P61289 whole entry K188R): as the sequence (P61289 whole entry K188S) above, with S188R counted along it
REGγ(K188A), sequence (P61289 whole entry K188A): as the sequence (P61289 whole entry K188S) above, with S188A counted along it
REGγ(K188D), sequence (P61289 whole entry K188D): as the sequence (P61289 whole entry K188S) above, with S188D counted along it
REGγ(K188C), sequence (P61289 whole entry K188C): as the sequence (P61289 whole entry K188S) above, with S188C counted along it
REGγ(K188P), sequence (P61289 whole entry K188P): as the sequence (P61289 whole entry K188S) above, with S188P counted along it
REGγ (wild-type), sequence (P61289 whole entry): as the sequence (P61289 whole entry K188S) above, with S188K counted along it
REGγ(K188N), sequence (P61289 whole entry K188N): as the sequence (P61289 whole entry K188S) above, with S188N counted along it
REGγ(K188H), sequence (P61289 whole entry K188H): as the sequence (P61289 whole entry K188S) above, with S188H counted along it
REGγ(K188F), sequence (P61289 whole entry K188F): as the sequence (P61289 whole entry K188S) above, with S188F counted along it
REGγ(K188Q), sequence (P61289 whole entry K188Q): as the sequence (P61289 whole entry K188S) above, with S188Q counted along it
REGγ(K188I), sequence (P61289 whole entry K188I): as the sequence (P61289 whole entry K188S) above, with S188I counted along it
REGα/β, sequence (Q06323 whole entry, chain 1 of 2): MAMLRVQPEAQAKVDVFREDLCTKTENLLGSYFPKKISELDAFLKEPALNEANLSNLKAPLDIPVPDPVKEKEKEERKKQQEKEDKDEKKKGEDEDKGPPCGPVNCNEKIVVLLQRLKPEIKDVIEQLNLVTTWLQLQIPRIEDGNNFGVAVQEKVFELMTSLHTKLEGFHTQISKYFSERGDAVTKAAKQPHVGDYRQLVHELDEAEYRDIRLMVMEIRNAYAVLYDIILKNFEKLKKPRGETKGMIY
REGα/β, sequence (chain, as listed by the source, chain 2 of 2): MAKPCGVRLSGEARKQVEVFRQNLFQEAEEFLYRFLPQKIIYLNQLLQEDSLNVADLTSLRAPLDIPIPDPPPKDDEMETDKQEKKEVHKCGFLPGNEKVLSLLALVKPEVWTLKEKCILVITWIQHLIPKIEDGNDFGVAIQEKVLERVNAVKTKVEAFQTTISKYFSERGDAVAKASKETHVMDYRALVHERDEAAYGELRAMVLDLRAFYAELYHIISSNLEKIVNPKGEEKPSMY
REGα, sequence (Q06323 whole entry): as the sequence (Q06323 whole entry, chain 1 of 2) above
REGγ(K188E), sequence (P61289 whole entry K188E): as the sequence (P61289 whole entry K188S) above, with S188E counted along it

With “20S proteasome (human red blood cell proteasomes)” the Stimulation of cleavage (x-fold), AAF-MCA (REGα) was 6 x-fold, the Stimulation of cleavage (x-fold), DEVD(SEQ ID NO: 8)-MCA (REGα) was 10 x-fold and the Stimulation of cleavage (x-fold), FSR-MCA (REGα) was 10 x-fold. The Stimulation of cleavage (x-fold), IEGR(SEQ ID NO: 5)-MCA (REGα) was 3 x-fold, the Stimulation of cleavage (x-fold), IETD(SEQ ID NO: 6)-MCA (REGα) was 30 x-fold and the Stimulation of cleavage (x-fold), LGHD(SEQ ID NO: 7)-MCA (REGα) was 11 x-fold. The Stimulation of cleavage (x-fold), LLE-βNA (REGα) was 9 x-fold, the Stimulation of cleavage (x-fold), LLVY(SEQ ID NO: 1)-MCA (REGα) was 16 x-fold and the Stimulation of cleavage (x-fold), LLVY-MCA (REGα) was 16 x-fold. It also gave a Stimulation of cleavage (x-fold), LRR-MCA (REGα) of 16 x-fold, a Stimulation of cleavage (x-fold), LY-MCA (REGα) of 5 x-fold and a Stimulation of cleavage (x-fold), VLK-MCA (REGα) of 7 x-fold. For the same substance, the Stimulation of cleavage (x-fold), YVAD(SEQ ID NO: 9)-MCA (REGα) was 9 x-fold, the “hydrolysis of the 21-residue peptide P21 by the proteasome (HPLC)” value (“hydrolysis of the 21-residue peptide P21” below) (REGα) was “REGγ(K188E or D) and REGα markedly increased sunstrate consumption” and the % Degraded, substrate F1-EPQPQ (SEQ ID NO: 15), 5 hr (REGα/β) was 55%. For the same substance, the % Degraded, substrate F1-KSQPQ (SEQ ID NO: 16), 5 hr (REGα/β) was 85%, the % Degraded, substrate F1-QHQ, 5 hr (REGα/β) was 80% and the % Degraded, substrate F1-QPQ, 5 hr (REGα/β) was 85%. The % Degraded, substrate F1-QQQ, 5 hr (REGα/β) was 85%, the % Degraded, substrate F1-EPQPQ (SEQ ID NO: 15), 5 hr (REGγ (wild-type)) was 5% and the % Degraded, substrate F1-KSQPQ (SEQ ID NO: 16), 5 hr (REGγ (wild-type)) was 15%. For the same substance, the % Degraded, substrate F1-QHQ, 5 hr (REGγ (wild-type)) was 5%, the % Degraded, substrate F1-QPQ, 5 hr (REGγ (wild-type)) was 5% and the % Degraded, substrate F1-QQQ, 5 hr (REGγ (wild-type)) was 15%. It also gave a Stimulation of cleavage (x-fold), AAF-MCA (REGγ (wild-type)) of 1 x-fold, a Stimulation of cleavage (x-fold), DEVD(SEQ ID NO: 8)-MCA (REGγ (wild-type)) of 2 x-fold and a Stimulation of cleavage (x-fold), FSR-MCA (REGγ (wild-type)) of 7 x-fold. The Stimulation of cleavage (x-fold), IEGR(SEQ ID NO: 5)-MCA (REGγ (wild-type)) was 1 x-fold, the Stimulation of cleavage (x-fold), IETD(SEQ ID NO: 6)-MCA (REGγ (wild-type)) was 1 x-fold and the Stimulation of cleavage (x-fold), LGHD(SEQ ID NO: 7)-MCA (REGγ (wild-type)) was 1 x-fold. It also gave a Stimulation of cleavage (x-fold), LLE-βNA (REGγ (wild-type)) of 0.6 x-fold, a Stimulation of cleavage (x-fold), LLVY(SEQ ID NO: 1)-MCA (REGγ (wild-type)) of 0.4 x-fold and a Stimulation of cleavage (x-fold), LLVY-MCA (REGγ (wild-type)) of 0.4 x-fold. The Stimulation of cleavage (x-fold), LRR-MCA (REGγ (wild-type)) was 12 x-fold and 11 x-fold, the Stimulation of cleavage (x-fold), LY-MCA (REGγ (wild-type)) was 2 x-fold and the Stimulation of cleavage (x-fold), VLK-MCA (REGγ (wild-type)) was 5 x-fold. For the same substance, the Stimulation of cleavage (x-fold), YVAD(SEQ ID NO: 9)-MCA (REGγ (wild-type)) was 0.9 x-fold, the “hydrolysis of the 21-residue peptide P21” value (REGγ (wild-type)) was “Wild-type REGγ decreased hydrolysis of P21 by the proteasome” and the Stimulation of cleavage (x-fold), LLE-βNA (REGγ(K188A)) was 6 x-fold. For the same substance, the Stimulation of cleavage (x-fold), LLVY-MCA (REGγ(K188A)) was 6 x-fold, the Stimulation of cleavage (x-fold), LRR-MCA (REGγ(K188A)) was 13 x-fold and the Stimulation of cleavage (x-fold), LLE-βNA (REGγ(K188C)) was 5 x-fold. It also gave a Stimulation of cleavage (x-fold), LLVY-MCA (REGγ(K188C)) of 6 x-fold, a Stimulation of cleavage (x-fold), LRR-MCA (REGγ(K188C)) of 13 x-fold and a Stimulation of cleavage (x-fold), AAF-MCA (REGγ(K188D)) of 4 x-fold. It also gave a Stimulation of cleavage (x-fold), DEVD(SEQ ID NO: 8)-MCA (REGγ(K188D)) of 9 x-fold, a Stimulation of cleavage (x-fold), FSR-MCA (REGγ(K188D)) of 7 x-fold and a Stimulation of cleavage (x-fold), IEGR(SEQ ID NO: 5)-MCA (REGγ(K188D)) of 2 x-fold. It also gave a Stimulation of cleavage (x-fold), IETD(SEQ ID NO: 6)-MCA (REGγ(K188D)) of 26 x-fold, a Stimulation of cleavage (x-fold), LGHD(SEQ ID NO: 7)-MCA (REGγ(K188D)) of 11 x-fold and a Stimulation of cleavage (x-fold), LLE-βNA (REGγ(K188D)) of 9 x-fold. It also gave a Stimulation of cleavage (x-fold), LLVY(SEQ ID NO: 1)-MCA (REGγ(K188D)) of 14 x-fold, a Stimulation of cleavage (x-fold), LLVY-MCA (REGγ(K188D)) of 14 x-fold and a Stimulation of cleavage (x-fold), LRR-MCA (REGγ(K188D)) of 15 x-fold. The Stimulation of cleavage (x-fold), LY-MCA (REGγ(K188D)) was 3 x-fold, the Stimulation of cleavage (x-fold), VLK-MCA (REGγ(K188D)) was 6 x-fold and the Stimulation of cleavage (x-fold), YVAD(SEQ ID NO: 9)-MCA (REGγ(K188D)) was 8 x-fold. For the same substance, the “hydrolysis of the 21-residue peptide P21” value (REGγ(K188D)) was “REGγ(K188E or D) and REGα markedly increased sunstrate consumption”, the % Degraded, substrate F1-EPQPQ (SEQ ID NO: 15), 5 hr (REGγ(K188E)) was 80% and the % Degraded, substrate F1-KSQPQ (SEQ ID NO: 16), 5 hr (REGγ(K188E)) was 80%. For the same substance, the % Degraded, substrate F1-QHQ, 5 hr (REGγ(K188E)) was 50%, the % Degraded, substrate F1-QPQ, 5 hr (REGγ(K188E)) was 50% and the % Degraded, substrate F1-QQQ, 5 hr (REGγ(K188E)) was > 95%. The Stimulation of cleavage (x-fold), AAF-MCA (REGγ(K188E)) was 4 x-fold, the Stimulation of cleavage (x-fold), DEVD(SEQ ID NO: 8)-MCA (REGγ(K188E)) was 8 x-fold and the Stimulation of cleavage (x-fold), FSR-MCA (REGγ(K188E)) was 7 x-fold. It also gave a Stimulation of cleavage (x-fold), IEGR(SEQ ID NO: 5)-MCA (REGγ(K188E)) of 2 x-fold, a Stimulation of cleavage (x-fold), IETD(SEQ ID NO: 6)-MCA (REGγ(K188E)) of 21 x-fold and a Stimulation of cleavage (x-fold), LGHD(SEQ ID NO: 7)-MCA (REGγ(K188E)) of 10 x-fold. For the same substance, the Stimulation of cleavage (x-fold), LLE-βNA (REGγ(K188E)) was 9 x-fold, the Stimulation of cleavage (x-fold), LLVY(SEQ ID NO: 1)-MCA (REGγ(K188E)) was 14 x-fold and the Stimulation of cleavage (x-fold), LLVY-MCA (REGγ(K188E)) was 14 x-fold. It also gave a Stimulation of cleavage (x-fold), LRR-MCA (REGγ(K188E)) of 15 x-fold, a Stimulation of cleavage (x-fold), LY-MCA (REGγ(K188E)) of 3 x-fold and a Stimulation of cleavage (x-fold), VLK-MCA (REGγ(K188E)) of 6 x-fold. The Stimulation of cleavage (x-fold), YVAD(SEQ ID NO: 9)-MCA (REGγ(K188E)) was 7 x-fold, the “hydrolysis of the 21-residue peptide P21” value (REGγ(K188E)) was “REGγ(K188E or D) and REGα markedly increased sunstrate consumption” and the Stimulation of cleavage (x-fold), LLE-βNA (REGγ(K188F)) was 4 x-fold. For the same substance, the Stimulation of cleavage (x-fold), LLVY-MCA (REGγ(K188F)) was 4 x-fold, the Stimulation of cleavage (x-fold), LRR-MCA (REGγ(K188F)) was 13 x-fold and the Stimulation of cleavage (x-fold), LLE-βNA (REGγ(K188H)) was 4 x-fold. It also gave a Stimulation of cleavage (x-fold), LLVY-MCA (REGγ(K188H)) of 5 x-fold, a Stimulation of cleavage (x-fold), LRR-MCA (REGγ(K188H)) of 14 x-fold and a Stimulation of cleavage (x-fold), LLE-βNA (REGγ(K188I)) of 3 x-fold. For the same substance, the Stimulation of cleavage (x-fold), LLVY-MCA (REGγ(K188I)) was 2 x-fold, the Stimulation of cleavage (x-fold), LRR-MCA (REGγ(K188I)) was 12 x-fold and the Stimulation of cleavage (x-fold), LLE-βNA (REGγ(K188N)) was 5 x-fold. For the same substance, the Stimulation of cleavage (x-fold), LLVY-MCA (REGγ(K188N)) was 5 x-fold, the Stimulation of cleavage (x-fold), LRR-MCA (REGγ(K188N)) was 14 x-fold and the Stimulation of cleavage (x-fold), LLE-βNA (REGγ(K188P)) was 1 x-fold. For the same substance, the Stimulation of cleavage (x-fold), LLVY-MCA (REGγ(K188P)) was 1 x-fold, the Stimulation of cleavage (x-fold), LRR-MCA (REGγ(K188P)) was 12 x-fold and the Stimulation of cleavage (x-fold), LLE-βNA (REGγ(K188Q)) was 5 x-fold. The Stimulation of cleavage (x-fold), LLVY-MCA (REGγ(K188Q)) was 5 x-fold, the Stimulation of cleavage (x-fold), LRR-MCA (REGγ(K188Q)) was 14 x-fold and the Stimulation of cleavage (x-fold), LLE-βNA (REGγ(K188R)) was 0.7 x-fold. The Stimulation of cleavage (x-fold), LLVY-MCA (REGγ(K188R)) was 0.7 x-fold, the Stimulation of cleavage (x-fold), LRR-MCA (REGγ(K188R)) was 10 x-fold and the Stimulation of cleavage (x-fold), LLE-βNA (REGγ(K188S)) was 3 x-fold. The Stimulation of cleavage (x-fold), LLVY-MCA (REGγ(K188S)) was 3 x-fold and the Stimulation of cleavage (x-fold), LRR-MCA (REGγ(K188S)) was 14 x-fold.
